Experimental data published in US6462177B1, “Mammalian blood loss-induced gene, kd312” (Amgen Inc., priority 1998, dated 2002).
Entries after “also recorded” stand apart in the source; their conditions may differ.

B1: kd312: human kd312 protein (281 amino acids), blood loss-induced, distantly related to the Ras family, expressed from cDNA (protein)
chain: MKLAAMIKKMCPSDSELSIPAKNCYRMVILGSSKVGKTAIVSRFLTGRFEDAYTPTIEDFHRKFYSIRGEVYQLDILDTSGNHPFPAMRRLSILTGDVFILVFSLDNRDSFEEVQRLRQQILDTKSCLKNKTKENVDVPLVICGNKGDRDFYREVDQREIEQLVGDDPQRCAYFEISAKKNSSLDQMFRALFAMAKLPSEMSPDLHRKVSVQYCDVLHKKALRNKKLLRAGSGGGGGDPGDAFGIVAPFARRPSVHSDLMYIREKASAGSQAKDKERCVIS
B2: R-ras: human R-ras gene product of the Ras family, expressed from pCEP4 in 293 cells (protein, UniProt P10301 1-215, looked up)
Ras-related protein R-Ras: MSSGAASGTGRGRPRGGGPGPGDPPPSETHKLVVVGGGGVGKSALTIQFIQSYFVSDYDPTIEDSYTKICSVDGIPARLDILDTAGQEEFGAMREQYMRAGHGFLLVFAINDRQSFNEVGKLFTQILRVKDRDDFPVVLVGNKADLESQRQVPRSEASAFGASHHVAYFEASAKLRLNVDEAFEQLVRAVRKYQEQELPPSPPSAPRKKGGGCPC

Tests used:
293 cells = assay: Establishment of 293 cell lines constitutively expressing genes from pCEP4; assay type: cell-based, human; settings: no stable cell line could be established
Protocol: (§1) Transfections of 293 cells with the plasmid pCEP4 or its derivatives were performed by using LipofectAMINE Reagent and the protocol supplied with it by Gibco BRL. Transfected cells were grown in Gibco BRL D-MEM high-glucose medium that lacked sodium pyruvate and was supplemented with 10% FBS and 300 μg/ml hygromycin. Fluorescence-activated cell sorting (FACS) for apoptosis assays was performed according to Polverino and Patterson, J. Biol. Chem. 272, No. 11: 7013-7021 (1997).
(§2) Involvement of kd312 in apoptosis was tested in the human embryonal kidney cell line 293 following expression of this gene from the episomal expression vector pCEP4. Derivatives of 293 cells constitutively expressing human kd312, bcl-2, R-ras, and murine H-ras genes from pCEP4 were established. Expression of each gene was confirmed by Western blotting experiments (data not shown). […] It has been shown that R-ras promotes apoptosis following expression in 32, D3, FL5.12, and NIH3T3 cells. […] The levels of inhibition following expression of the ras genes, particularly R-ras, were unmistakably lower than those resulting from the expression of kd312.

[1] = tested on: human embryonal kidney cell line 293; assay: FACS analysis of geranylgeraniol-induced apoptosis in 293 cells transfected with various genes; assay type: cell-based; settings: 293 cells constitutively expressing the gene from pCEP4; 10 μM geranylgeraniol; propidium iodide FACS
Protocol: FIG. 4 depicts inhibition of apoptosis by human kd312 as compared to other proteins (as indicated). Shown graphs are the results from FACS analysis of apoptosis induced by geranylgeraniol in 293 cells transfected with various genes. Cells were treated with 10 μM geranylgeraniol for various times as indicated. Subsequently, the cells were washed and stained with 50 μg/ml propidium iodide in 3.8 mM sodium citrate pH 7.0 and analyzed using a FACScan flow cytometer. The extent of apoptosis was determined by measuring the proportion of cells displaying hypo-diploid DNA content. The data represent the average of 2 independent experiments.
as §1, §2

human Raf = target: T1, human Raf (Homo sapiens, UniProt P04049); assay: Yeast two-hybrid interaction test; assay type: binding; settings: yeast two-hybrid system
T1 construct: expressed in transfected cells
Text: (§3) To define the way that kd312 exerts its function we have tested its interaction with human Raf, H-Ras, and bcl-2 using a yeast two-hybrid system. […] Work is in progress to search for kd312 interacting proteins using the same yeast system.

H-Ras = target: T2, H-Ras (Homo sapiens, UniProt P01112); assay: Yeast two-hybrid interaction test; assay type: binding; settings: yeast two-hybrid system
T2 construct: expressed in transfected cells
Text: as §3

bcl-2 = target: T3, bcl-2 (Homo sapiens, UniProt P10415); assay: Yeast two-hybrid interaction test; assay type: binding; settings: yeast two-hybrid system
T3 construct: expressed in transfected cells
Text: as §3

T3 sequence (P10415 whole entry): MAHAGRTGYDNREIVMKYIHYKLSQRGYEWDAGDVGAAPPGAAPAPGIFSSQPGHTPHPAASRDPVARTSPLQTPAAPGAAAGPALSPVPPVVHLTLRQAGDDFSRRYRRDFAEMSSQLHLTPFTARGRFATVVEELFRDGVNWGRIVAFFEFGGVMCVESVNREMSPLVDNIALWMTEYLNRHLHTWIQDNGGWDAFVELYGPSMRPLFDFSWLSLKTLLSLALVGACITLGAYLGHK

Molecule	outcome of gene expression in 293 cells (293 cells)	effect on geranylgeraniol-induced apoptosis (proportion of cells with hypo-diploid DNA content) [1]	interaction with human Raf (human Raf)	interaction with H-Ras (H-Ras)	interaction with bcl-2 (bcl-2)
bax: murine bax gene product; expression in 293 cells led to cell death	invariably led to cell death	–	–	–	–
bcl-2: bcl-2 gene product, a potent apoptosis inhibitor, expressed from pCEP4 in 293 cells [reference compound]	–	protected 293 cells from geranylgeraniol-induced apoptosis	–	–	–
B1	–	protects the cells from apoptosis; also recorded: protected 293 cells from geranylgeraniol-induced apoptosis; also recorded: protects 293 cells from chemical-induced apoptosis	No interaction	No interaction	No interaction
B2	–	inhibited apoptosis	–	–	–
